The values that follow are results of earlier work, collected in paper PMC6359176.

This data set has as its target α-synuclein preformed fibrils (Homo sapiens) (UniProt P37840).

Regarding LAG3 (from UniProt Q61790), the Kd is 77 nM.
